# Laboratory results reported in US20230301926A1 (EVOX THERAPEUTICS, published 2023).
# Key:
# mouse serum albumin = biological target: T1, mouse serum albumin (mouse, UniProt P07724 25-608); test: EVs recovered from mouse serum 10 min after injection, gradient separation and dot-blot with anti-mouse serum albumin antibody
# T1 construct: Albumin picked up by the EVs in the circulation of the mice
# Protocol: Mice were injected with mCD63-ABD-2nd loop Nluc HEK EVs or mCD63-Nluc (no ABD control). Serum was collected 10 minutes after injection and purified with size-exclusion columns (qEV) to isolate EVs. 2.5×10¹⁰ EVs were then incubated overnight at 4° C. with an antibody anti-mouse serum albumin (labelled with FITC) and a mix of tetraspanin antibodies (human specific CD9, CD63 and CD81, 1:100) labelled with Alexa Fluor 647. The next day, EVs were separated by Optiprep gradient ultracentrifugation and 300 µl fractions were collected, 100 µl from each fraction were used for DOTBLOT analysis and 50 µl from three subsequent fractions were pulled and used for imaging (widefield)
# [1] = biological target: T2, human serum albumin (labelled with Alexa Fluor 488) (human, UniProt P02768 25-609, Alexa Fluor 488 label (site not stated)); test: Optiprep gradient ultracentrifugation and dot-blot of EVs incubated with Alexa Fluor 488 HSA
# T2 construct: Used at 80 µg/ml in the Optiprep gradient / dot-blot assays; also called HSA
# Protocol: Gradient separation was performed to assess the binding of albumin to EVs expressing ABD on the surface. The fusion constructs tested were: [0235] mCD63-Nluc (concentration: 1.37×10¹² particles/ml) [0236] mCD63-ABD-2nd loop Nluc (concentration: 6.5×10¹¹ particles/ml)
# HEK EVs with albumin binding domain fused to different or both CD63 loops were incubated overnight at 4° C. 5 µl with 80 µg/ml human serum albumin (labelled with Alexa Fluor 488) and a mix of tetrspanin antibodies (CD9, CD63 and CD81, 1:100) labelled with Alexa Fluor 647. The next day, EVs were separated by Optiprep gradient ultracentrifugation and 300 µl fractions were collected, 100 µl from each fraction were used for DOTBLOT analysis and 50 µl from three subsequent fractions were pooled and used for imaging (widefield and dSTORM)
# [2] = biological target: T2, human serum albumin (labelled with …); test: Optiprep gradient and dot-blot of 4e10 HEK EVs incubated with 80 µg/ml Alexa Fluor 488 HSA
# Protocol: This experiment was performed by incubating overnight at 4° C. 4e¹⁰ HEK EVs expressing the constructs detailed above with 80 µg/ml human serum albumin (labelled with Alexa Fluor 488) and a mix of tetraspanin antibody. The next day, EVs were separated by Optiprep gradient ultracentrifugation and 300 µl fractions were collected, 100 µl from each fraction were used for DOTBLOT analysis and 50 µl from three subsequent fractions were pulled and used for imaging (widefield and dSTORM) […] (CD9, CD63 and CD81, 1:100) labelled with Alexa […].
# FITC-human albumin = biological target: T3, FITC-human albumin (human, UniProt P02768 25-609, FITC label (site not stated)); test: in vitro albumin binding assay, protocol of Example 7
# T3 construct: also called fluorescein isothiocyanate (FITC)-labeled albumin; FITC-albumin
# T3 sequence (P02768 25-609 limits assumed): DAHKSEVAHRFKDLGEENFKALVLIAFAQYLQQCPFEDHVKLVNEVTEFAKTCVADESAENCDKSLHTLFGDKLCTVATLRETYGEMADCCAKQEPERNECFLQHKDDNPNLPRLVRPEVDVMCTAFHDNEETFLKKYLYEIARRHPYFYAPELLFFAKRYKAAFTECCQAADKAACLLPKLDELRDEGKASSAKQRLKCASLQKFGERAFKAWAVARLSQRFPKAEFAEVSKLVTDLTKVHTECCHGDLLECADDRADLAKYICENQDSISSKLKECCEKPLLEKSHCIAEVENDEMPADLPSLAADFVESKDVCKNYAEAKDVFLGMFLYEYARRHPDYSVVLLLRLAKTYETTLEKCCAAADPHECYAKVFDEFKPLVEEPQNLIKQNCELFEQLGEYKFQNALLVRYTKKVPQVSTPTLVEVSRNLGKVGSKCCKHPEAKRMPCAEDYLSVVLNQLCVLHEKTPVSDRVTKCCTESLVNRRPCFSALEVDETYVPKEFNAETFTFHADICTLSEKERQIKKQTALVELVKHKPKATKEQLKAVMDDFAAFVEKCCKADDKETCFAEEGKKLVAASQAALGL
# T2 sequence (P02768 25-609 limits assumed): as above
Binder,binding result [2],further results
"mCD63-ABD 2nd loop-NanoLuc (other, also called mCD63-ABD-2nd loop Nluc; mCD63-ABD 2nd loop-Nluc) MAVEGGMKCVKFLLYVLLLAFCACAVGLIAIGVAVQVVLKQAMHITHETTAGSLLPVVIIAVGAFLFLVAFVGCCGACKENYCLMITFAIFLSLIMLVEVAVAIAGYVFRDQVKSEFNKSFQQQMQNYLKDNKTATILDKLQKENNCCGATRRTQHDEAVDANSLAEAKVLANRELDKYGVSDFYKRLINKAKTVEGVEALKLHILAALPRTCTSGTRSNYTDWENIPGMAKDRVPDSCCINITVGCGNDFKESTIHTQGCVETIAIWLRKNILLVAAAALGIAFVEVLGIIFSCCLVKSIRSGYEVMGSGSGSGSGSVFTLEDFVGDWRQTAGYNLDQVLEQGGVSSLFQNLGVSVTPIQRIVLSGENGLKIDIHVIIPYEGLSGDQMGQIEKIFKVVYPVDDHHFKVILHYGTLVIDGVTPNMIDYFGRPYEGIAVFDGKKITVTGTLWNGNKIIDERLINPDGSLLFRVTINGVTGWRLCERILAHHHHHH",–,binding result (mouse serum albumin): binds
"mCD63-NanoLuc (other, Control fusion of CD63 and nanoluc reporter lacking ABD, carried on EVs in the assays; His tag of the entry is called optional; also called mCD63-Nluc; control EVs) MAVEGGMKCVKFLLYVLLLAFCACAVGLIAIGVAVQVVLKQAMHITHETTAGSLLPVVIIAVGAFLFLVAFVGCCGACKENYCLMITFAIFLSLIMLVEVAVAIAGYVFRDQVKSEFNKSFQQQMQNYLKDNKTATILDKLQKENNCCGATRSNYTDWENIPGMAKDRVPDSCCINITVGCGNDFKESTIHTQGCVETIAIWLRKNILLVAAAALGIAFVEVLGIIFSCCLVKSIRSGYEVMGSGSGSGSGSVFTLEDFVGDWRQTAGYNLDQVLEQGGVSSLFQNLGVSVTPIQRIVLSGENGLKIDIHVIIPYEGLSGDQMGQIEKIFKVVYPVDDHHFKVILHYGTLVIDGVTPNMIDYFGRPYEGIAVFDGKKITVTGTLWNGNKIIDERLINPDGSLLFRVTINGVTGWRLCERILAHHHHHH",–,binding result [1]: no binding (tested: 80 µg/ml human serum albumin)
"hCD81-ABD-2ndloop-Nluc (other, also called hCD81-ABD 2 nd-Nluc) MGVEGCTKCIKYLLFVFNFVFWLAGGVILGVALWLRHDPQTTNLLYLEMHLGDKPAPNTFYVGIYILIAVGAVMMFVGFLGCYGAIQESQCLLGTFFTCLVILFACEVAAGIWGFVNKDQIAKDVKQFYDQALQQAVVDDDANNAKAVVKTFHETLDCCGSTRQHDEAVDANSLAEAKVLANRELDKYGVSDFYKRLINKAKTVEGVEALKLHILAALPTRSTLTALTTSVLKNNLCPSGSNIISNLFKEDCHQKIDDLFSGKLYLIGIAAIVVAVIMIFEMILSMVLCCGIRNSSVYGSVFTLEDFVGDWRQTAGYNLDQVLEQGGVSSLFQNLGVSVTPIQRIVLSGENGLKIDIHVIIPYEGLSGDQMGQIEKIFKVVYPVDDHHFKVILHYGTLVIDGVTPNMIDYFGRPYEGIAVFDGKKITVTGTLWNGNKIIDERLINPDGSLLFRVTINGVTGWRLCERILA",binds,–
"hCD9-ABD-1stloop-Nluc (other, also called hCD9-ABD 1 st-Nluc) MPVKGGTKCIKYLLFGFNFIFWLAGIAVLAIGLWLRFDSQTKSIMHLAEAKVLANRELDKYGVSDFYKRLINKAKTVEGVEALKLHILAALPMHFEQETNNNNSSFYTGVYILIGAGALMMLVGFLGCCGAVQESQCMLGLFFGFLLVIFAIEIAAAIWGYSHKDEVIKEVQEFYKDTYNKLKTKDEPQRETLKAIHYALNCCGLTRAGGVEQFISDICPKKDVLETFTVKSCPDAIKEVFDNKFHIIGAVGIGIAVVMIFGMIFSMILCCAIRRNREMVGSVFTLEDFVGDWRQTAGYNLDQVLEQGGVSSLFQNLGVSVTPIQRIVLSGENGLKIDIHVIIPYEGLSGDQMGQIEKIFKVVYPVDDHHFKVILHYGTLVIDGVTPNMIDYFGRPYEGIAVFDGKKITVTGTLWNGNKIIDERLINPDGSLLFRVTINGVTGWRLCERILA",binds,–
"hCD9-ABD-2x-Nluc (ABD present in both loops) (other, also called hCD9-ABDX2-Nluc) MPVKGGTKCIKYLLFGFNFIFWLAGIAVLAIGLWLRFDSQTKSIMHLAEAKVLANRELDKYGVSDFYKRLINKAKTVEGVEALKLHILAALPMHFEQETNNNNSSFYTGVYILIGAGALMMLVGFLGCCGAVQESQCMLGLFFGFLLVIFAIEIAAAIWGYSHKDEVIKEVQEFYKDTYNKLKTKDEPQRETLKAIHYALNCCGLTRQHDEAVDANSLAEAKVLANRELDKYGVSDFYKRLINKAKTVEGVEALKLHILAALPTRAGGVEQFISDICPKKDVLETFTVKSCPDAIKEVFDNKFHIIGAVGIGIAVVMIFGMIFSMILCCAIRRNREMVGSVFTLEDFVGDWRQTAGYNLDQVLEQGGVSSLFQNLGVSVTPIQRIVLSGENGLKIDIHVIIPYEGLSGDQMGQIEKIFKVVYPVDDHHFKVILHYGTLVIDGVTPNMIDYFGRPYEGIAVFDGKKITVTGTLWNGNKIIDERLINPDGSLLFRVTINGVTGWRLCERILA",binds,–
"hCD9-ABD-2ndloop-Nluc (other, also called hCD9-ABD 2 nd-Nluc) MPVKGGTKCIKYLLFGFNFIFWLAGIAVLAIGLWLRFDSQTKSIMHFEQETNNNNSSFYTGVYILIGAGALMMLVGFLGCCGAVQESQCMLGLFFGFLLVIFAIEIAAAIWGYSHKDEVIKEVQEFYKDTYNKLKTKDEPQRETLKAIHYALNCCGLTRQHDEAVDANSLAEAKVLANRELDKYGVSDFYKRLINKAKTVEGVEALKLHILAALPTRAGGVEQFISDICPKKDVLETFTVKSCPDAIKEVFDNKFHIIGAVGIGIAVVMIFGMIFSMILCCAIRRNREMVGSVFTLEDFVGDWRQTAGYNLDQVLEQGGVSSLFQNLGVSVTPIQRIVLSGENGLKIDIHVIIPYEGLSGDQMGQIEKIFKVVYPVDDHHFKVILHYGTLVIDGVTPNMIDYFGRPYEGIAVFDGKKITVTGTLWNGNKIIDERLINPDGSLLFRVTINGVTGWRLCERILA",binds,–
"Lamp2b-ABD-NanoLuc (other, also called Lamp2B-ABD-Nluc; Lamp2b-ABD-Nluc) LKFEQHDEAVDANSLAEAKVLANRELDKYGVSDFYKRLINKAKTVEGVEALKLHILAALPFETGGAPMHISQAVHAAHAEINEAGRSIINFEKLCTSVYDFFVWLGRGHLLGRLAAIVGKQVLLGRKVVVVRSHCHWNDLAVIPAGVVHNWDFEPRKVSPSKPSFQEFVDWENVSPELNSTDQPFLCTGSGSGSGSGSLKPAGILIPIIVGAGLSGLIIVIVIAYVIGRRKSYAGAQTLGGGGSYIPEAPRDGQAYVRKDGEWVLLSTFLSPANGTPTPTPTPTGRSLYPSLEDLKVDKVIQAQTAFSANPANPAILSEASAPIPHDGNLYPRLYPELSQYMGLSLEGGQLGTPTPTPTPTGGSVFTLEDFVGDWRQTAGYNLDQVLEQGGVSSLFQNLGVSVTPIQRIVLSGENGLKIDIHVIIPYEGLSGDQMGQIEKIFKVVYPVDDHHFKVILHYGTLVIDGVTPNMIDYFGRPYEGIAVFDGKKITVTGTLWNGNKIIDERLINPDGSLLFRVTINGVTGWRLCERILA",binds,binding result (FITC-human albumin): binds
"hCD81-ABD-1stloop-Nluc (other, also called hCD81-ABD 1 st-Nluc) MGVEGCTKCIKYLLFVFNFVFWLAGGVILGVALWLRHDPQTTNLLYLEMHLAEAKVLANRELDKYGVSDFYKRLINKAKTVEGVEALKLHILAALPMHLGDKPAPNTFYVGIYILIAVGAVMMFVGFLGCYGAIQESQCLLGTFFTCLVILFACEVAAGIWGFVNKDQIAKDVKQFYDQALQQAVVDDDANNAKAVVKTFHETLDCCGSTRSTLTALTTSVLKNNLCPSGSNIISNLFKEDCHQKIDDLFSGKLYLIGIAAIVVAVIMIFEMILSMVLCCGIRNSSVYGSVFTLEDFVGDWRQTAGYNLDQVLEQGGVSSLFQNLGVSVTPIQRIVLSGENGLKIDIHVIIPYEGLSGDQMGQIEKIFKVVYPVDDHHFKVILHYGTLVIDGVTPNMIDYFGRPYEGIAVFDGKKITVTGTLWNGNKIIDERLINPDGSLLFRVTINGVTGWRLCERILA",binds,–
"hCD81-ABD-2x-Nluc (ABD present in both loops) (other, also called hCD81-ABDX2-Nluc) MGVEGCTKCIKYLLFVFNFVFWLAGGVILGVALWLRHDPQTTNLLYLEMHLAEAKVLANRELDKYGVSDFYKRLINKAKTVEGVEALKLHILAALPMHLGDKPAPNTFYVGIYILIAVGAVMMFVGFLGCYGAIQESQCLLGTFFTCLVILFACEVAAGIWGFVNKDQIAKDVKQFYDQALQQAVVDDDANNAKAVVKTFHETLDCCGSTRQHDEAVDANSLAEAKVLANRELDKYGVSDFYKRLINKAKTVEGVEALKLHILAALPTRSTLTALTTSVLKNNLCPSGSNIISNLFKEDCHQKIDDLFSGKLYLIGIAAIVVAVIMIFEMILSMVLCCGIRNSSVYGSVFTLEDFVGDWRQTAGYNLDQVLEQGGVSSLFQNLGVSVTPIQRIVLSGENGLKIDIHVIIPYEGLSGDQMGQIEKIFKVVYPVDDHHFKVILHYGTLVIDGVTPNMIDYFGRPYEGIAVFDGKKITVTGTLWNGNKIIDERLINPDGSLLFRVTINGVTGWRLCERILA",binds,–
